{
  "source": "patent US20120316118A1",
  "about": "(OSSTEMIMPLANT, published 2012)",
  "binders": {"B1": {"name": "PEP7 oligopeptide (SEQ ID NO:1) (peptide)", "peptide": "KIPKPSSVPTELSAISMLYL", "notes": "Synthetic peptide made by the Fmoc/tBu method, coated on the ELISA plate"}},
  "key": {"[1]": {"biological_target": "T1, BMPR-II (BMP receptor type II) (UniProt Q13873 27-151, limits assumed)", "T1 construct": "Soluble receptor added to the PEP7-coated plate; also called BMPR-11; BMP-II", "T1 sequence (looked up)": "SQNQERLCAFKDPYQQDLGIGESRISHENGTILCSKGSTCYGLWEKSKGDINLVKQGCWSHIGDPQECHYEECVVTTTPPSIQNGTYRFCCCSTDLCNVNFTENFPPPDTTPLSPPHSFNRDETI", "test": "ELISA: peptide coated on plate, BMPR-II added, detected with anti-receptor antibody and HRP secondary, ABTS, absorbance at 595 nm", "method": "(§1) PEP7 ([…]) was added to an ELISA plate and incubated at 4° C. for 12 hours. After PEP7 was coated on the plate, BMPR-1A or BMPR-II ([…]) was added thereto and reacted at room temperature for 2 hours, to obtain a PEP7-BMP receptor complex. A primary antibody specific for a BMP receptor (0.5 mg BMPR-1A, BMPR-11) was added to the complex and reacted at room temperature for 1 hour. A secondary antibody (BMPR-1A- or BMPRII-Fc Ab-HRP) was then added to the resulting mixture and reacted at room temperature for 1 hour."}, "[2]": {"biological_target": "T2, BMPR-IA (BMP receptor type IA) (UniProt P36894 24-152, limits assumed)", "T2 construct": "Soluble receptor added to the PEP7-coated plate; also called BMPR-1A; BMP-specific receptor", "T2 sequence (P36894 24-152 limits assumed)": "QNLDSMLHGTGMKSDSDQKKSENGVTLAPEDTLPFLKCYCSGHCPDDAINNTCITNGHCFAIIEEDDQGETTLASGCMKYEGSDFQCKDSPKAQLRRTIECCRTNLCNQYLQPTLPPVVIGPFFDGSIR", "test": "ELISA: peptide coated on plate, BMPR-1A added, detected with anti-receptor antibody and HRP secondary, ABTS, absorbance at 595 nm", "method": "as §1"}},
  "data": [
    {"binder": "B1", "values": [
      {"measurement": "binding affinity relative to PEP 111 (ELISA absorbance)", "setting": "[1]", "result": "~23", "unit": "% higher than PEP 111"},
      {"measurement": "binding affinity relative to PEP 111 (ELISA absorbance)", "setting": "[2]", "result": "~23", "unit": "% higher than PEP 111"}
    ]}
  ]
}
